Measured values taken from publication PMC12430004.
Like-named read-outs stand apart in the source and are kept apart here.

T1: hPNPase Q387R (Homo sapiens, UniProt Q8TCS8 46-783, Q387R)
T1 sequence: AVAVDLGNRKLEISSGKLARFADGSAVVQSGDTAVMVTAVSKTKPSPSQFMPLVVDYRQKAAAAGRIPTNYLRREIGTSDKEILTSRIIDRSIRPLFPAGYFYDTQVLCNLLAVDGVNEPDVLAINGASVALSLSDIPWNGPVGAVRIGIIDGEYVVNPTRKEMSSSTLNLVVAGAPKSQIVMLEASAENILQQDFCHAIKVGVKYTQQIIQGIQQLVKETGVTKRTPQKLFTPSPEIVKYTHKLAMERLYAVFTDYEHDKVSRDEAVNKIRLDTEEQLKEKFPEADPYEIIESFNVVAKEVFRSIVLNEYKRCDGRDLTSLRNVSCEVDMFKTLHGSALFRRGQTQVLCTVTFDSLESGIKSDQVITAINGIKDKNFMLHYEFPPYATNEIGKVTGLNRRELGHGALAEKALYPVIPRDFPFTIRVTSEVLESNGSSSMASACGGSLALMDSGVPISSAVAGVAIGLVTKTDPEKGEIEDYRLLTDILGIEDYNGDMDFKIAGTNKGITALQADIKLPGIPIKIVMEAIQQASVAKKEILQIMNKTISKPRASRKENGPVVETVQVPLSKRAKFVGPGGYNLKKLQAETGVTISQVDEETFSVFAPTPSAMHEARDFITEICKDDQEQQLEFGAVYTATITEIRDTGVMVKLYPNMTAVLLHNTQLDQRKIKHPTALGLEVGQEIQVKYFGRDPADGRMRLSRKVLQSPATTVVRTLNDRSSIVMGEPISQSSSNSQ

T2: hPNPase E475G (Homo sapiens, UniProt Q8TCS8 46-783, E475G)
T2 sequence: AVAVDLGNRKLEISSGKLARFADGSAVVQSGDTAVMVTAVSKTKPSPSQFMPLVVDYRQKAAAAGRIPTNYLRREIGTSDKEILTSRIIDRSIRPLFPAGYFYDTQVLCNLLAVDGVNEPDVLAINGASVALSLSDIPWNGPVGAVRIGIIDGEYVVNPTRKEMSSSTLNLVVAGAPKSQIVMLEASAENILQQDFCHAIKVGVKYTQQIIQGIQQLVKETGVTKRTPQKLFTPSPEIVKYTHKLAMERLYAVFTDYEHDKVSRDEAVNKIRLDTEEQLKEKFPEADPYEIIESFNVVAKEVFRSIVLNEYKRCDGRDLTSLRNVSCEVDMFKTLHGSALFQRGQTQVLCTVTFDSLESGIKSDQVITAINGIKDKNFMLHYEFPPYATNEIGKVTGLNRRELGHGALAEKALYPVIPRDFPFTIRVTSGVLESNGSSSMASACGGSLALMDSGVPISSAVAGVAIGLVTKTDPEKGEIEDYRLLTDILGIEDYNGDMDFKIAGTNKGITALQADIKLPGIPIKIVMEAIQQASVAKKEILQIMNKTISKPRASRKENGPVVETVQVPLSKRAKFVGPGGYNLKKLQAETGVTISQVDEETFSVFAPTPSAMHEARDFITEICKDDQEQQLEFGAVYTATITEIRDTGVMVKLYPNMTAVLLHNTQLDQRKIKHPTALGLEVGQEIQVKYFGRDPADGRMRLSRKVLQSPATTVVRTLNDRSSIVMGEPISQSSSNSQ

T3: hPNPase P140L (Homo sapiens, UniProt Q8TCS8 46-783, P140L)
T3 sequence: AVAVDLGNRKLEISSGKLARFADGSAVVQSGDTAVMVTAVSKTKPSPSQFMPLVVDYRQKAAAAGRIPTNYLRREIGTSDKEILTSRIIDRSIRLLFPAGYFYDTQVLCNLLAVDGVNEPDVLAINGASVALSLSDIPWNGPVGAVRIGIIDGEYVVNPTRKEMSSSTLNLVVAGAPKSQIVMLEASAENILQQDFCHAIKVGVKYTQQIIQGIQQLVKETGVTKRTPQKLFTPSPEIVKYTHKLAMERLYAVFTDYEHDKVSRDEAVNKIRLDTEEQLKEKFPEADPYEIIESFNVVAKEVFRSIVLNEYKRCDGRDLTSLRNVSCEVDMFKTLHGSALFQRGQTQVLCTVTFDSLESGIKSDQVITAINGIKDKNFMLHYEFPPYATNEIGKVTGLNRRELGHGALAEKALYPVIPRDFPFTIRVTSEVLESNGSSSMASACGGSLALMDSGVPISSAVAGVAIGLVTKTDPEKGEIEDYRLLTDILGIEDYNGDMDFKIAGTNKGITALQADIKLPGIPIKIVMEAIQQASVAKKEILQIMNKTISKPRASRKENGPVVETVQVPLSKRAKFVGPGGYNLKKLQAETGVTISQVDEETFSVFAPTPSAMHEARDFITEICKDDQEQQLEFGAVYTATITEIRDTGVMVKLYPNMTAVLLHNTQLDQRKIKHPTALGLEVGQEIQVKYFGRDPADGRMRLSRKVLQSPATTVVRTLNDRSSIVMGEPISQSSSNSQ


Tests used:
Test in all cases: EMSA
hPNPase Q387R [1] = biological target: T1, hPNPase Q387R
hPNPase E475G [2] = biological target: T2, hPNPase E475G
hPNPase Q387R [3] = biological target: T1, hPNPase Q387R; remark: listed apart in the source
hPNPase P140L = biological target: T3, hPNPase P140L
hPNPase E475G [4] = biological target: T2, hPNPase E475G; remark: listed apart in the source

Binder | binding result (hPNPase Q387R [1]) | binding result (hPNPase E475G [2]) | binding result (hPNPase Q387R [3]) | binding result (hPNPase P140L) | binding result (hPNPase E475G [4])
ACUGGACAAAUACUCCGACG (ssRNA) [RNA20] | no binding | no binding | – | – | –
ACTGGACAAATACTCCGACG (ssDNA) [DNA20] | – | – | no binding | no binding | no binding
